Measurements from patent US20210032673A1.

Key:
[1] = molecular target: endogenous Arf6 of HEK293T cells (UniProt P62330); experiment: cell-based or functional assay
[2] = molecular target: calmodulin-sepharose (BioVision) (Homo sapiens (Human)) (UniProt P0DP23); experiment: luciferase-IQSEC2 cell extract on calmodulin-sepharose, no added calcium (5 mM EGTA, apocalmodulin), 0.1% Triton X-100, n=6
[3] = molecular target: calmodulin-sepharose (BioVision) (Homo sapiens (Human)) (UniProt P0DP23); experiment: calcium dose-response of luciferase-IQSEC2 binding to calmodulin-sepharose; the number is a calcium concentration, not a protein concentration
[4] = molecular target: calmodulin-sepharose (BioVision) (Homo sapiens (Human)) (UniProt P0DP23); experiment: luciferase-IQSEC2 cell extract on calmodulin-sepharose, free calcium greater than 200 nM (calcium-calmodulin), 0.1% Triton X-100, n=11
[5] = molecular target: human Calm3 (NM_005184) with C-terminal triple FLAG tag (human) (UniProt P0DP25); experiment: Lumier assay in HEK293T cells, renilla luciferase after anti-FLAG pull-down
[6] = molecular target: human Calm1 (NM_006888) with C-terminal triple FLAG tag (human) (UniProt P0DP23); experiment: as above
[7] = molecular target: human Calm2 (NM_001743) with C-terminal triple FLAG tag (human) (UniProt P0DP24); experiment: as above
GFP-FLAG [GFP: P42212] = experiment: Lumier assay in HEK293T cells, negative control interactor GFP-FLAG (background)
[8] = molecular target: human Calm3 (NM_005184) with C-terminal triple FLAG tag (human) (UniProt P0DP25); experiment: Lumier assay in HEK293T cells, renilla luciferase after pull-down normalized to FLAG ELISA
[9] = molecular target: human Calm1 (NM_006888) with C-terminal triple FLAG tag (human) (UniProt P0DP23); experiment: as above
[10] = molecular target: human Calm2 (NM_001743) with C-terminal triple FLAG tag (human) (UniProt P0DP24); experiment: as above

endogenous Arf6 of HEK293T cells, sequence (P62330 2-175 limits assumed): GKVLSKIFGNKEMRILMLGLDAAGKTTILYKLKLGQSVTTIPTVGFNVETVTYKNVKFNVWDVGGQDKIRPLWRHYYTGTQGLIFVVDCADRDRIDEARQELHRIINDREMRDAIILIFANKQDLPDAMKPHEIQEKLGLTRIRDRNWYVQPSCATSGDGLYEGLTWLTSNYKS

Row | Arf6 activation (Arf6-GTP, GGA3 pulldown and immunoblot) with ionomycin, fold over sham transfected cells [1] [fold] | Arf6 activation (Arf6-GTP, GGA3 pulldown and immunoblot), fold over sham transfected cells [1] [fold] | Arf6-GTP promoted, against wild type IQSEC2 protein [1] [fold] | increase in total Arf6-GTP by ELISA against cells expressing wild type IQSEC2 [1] [%] | total Arf6-GTP by ELISA, equivalent amounts of protein extract of stable HEK293T lines (spectrophotometric units) [1] | luciferase units bound to calmodulin sepharose (luciferase units) [2] | free calcium concentration at half-maximal binding [3] [µM] | luciferase units bound to calmodulin sepharose (luciferase units) [4] | fold difference of interaction strength, wild type against A350V IQSEC2 [5] [fold] | fold difference of interaction strength, wild type against A350V IQSEC2 [6] [fold] | fold difference of interaction strength, wild type against A350V IQSEC2 [7] [fold] | fold change of interaction strength, wild type against mutant IQSEC2 (GFP-FLAG [GFP: P42212]) [fold] | fold higher normalized interaction score, wild type against A350V IQSEC2 [8] [fold] | fold higher normalized interaction score, wild type against A350V IQSEC2 [9] [fold] | fold higher normalized interaction score, wild type against A350V IQSEC2 [10] [fold] | Substance
1 | 8.03 | 3.87 | – | – | – | – | – | – | – | – | – | – | – | – | – | FLAG-tagged wild type IQSEC2 (pCAGGS) (from UniProt Q5JU85 1-1488)
2 | – | – | 30 | 25 | 0.075 | 48 | 1 | 594 | – | – | – | – | – | – | – | renilla luciferase-HAx3-A350V IQSEC2 (from UniProt Q5JU85 1-1488)
3 | – | – | – | – | 0.06 | – | – | – | 36 | 34 | 15 | 1.07 | 31 | 31 | 14 | renilla luciferase-HAx3-wild type IQSEC2 (full length human IQSEC2, pcDNA3.1 Zeo construct) (from UniProt Q5JU85 1-1488)
